This note sets out measurements from the Human Domainome abundance scans (Beltran et al. 2025).

The chains are these.
B1: Nuclear receptor subfamily 1 group D member 2, residues 103 to 171; numbered along this chain, Q14995 (parent)
chain: CKVCGDVASGFHYGVHACEGCKGFFRRSIQQNIQYKKCLKNENCSIMRMNRNRCQQCRFKKCLSVGMSR

± gives the uncertainty stated by the source.

Variants of B1 are the subject of this data set. The data set can be described thus: abundance fitness (aPCA) (normalised: wild type 0, dead -1); higher = more abundant; growth selection in yeast, the domain comes from the species named. Particulars: Homo sapiens.
For the variant R51G, the abundance fitness is -0.001 ± 0.15.
As to R51I, the abundance fitness was -0.417 ± 0.39.
Next, R51Y: -0.077 ± 0.21; R51W: -0.077 ± 0.26; R51L: -0.059 ± 0.11.
Next, R51V: 0.026 ± 0.14; R51K: 0.044 ± 0.18; R69S: 0.176 ± 0.12.
Next, R69P: 0.28 ± 0.12.
Turning to R69C, the abundance fitness was -0.013 ± 0.34.
Next, R69F: 0.483 ± 0.36.
For R69V, the abundance fitness turned out to be 0.327 ± 0.07.
In the case of R69A, the abundance fitness came out at 0.233 ± 0.088.
In the case of R69W it was 0.288 ± 0.17; in that of N50G, -0.383 ± 0.11; in that of N50L, -0.45 ± 0.082.
As to N50T, the abundance fitness is -0.121 ± 0.086.
Next, N50F: -0.107 ± 0.13; N50E: -0.193 ± 0.16.
On to N50K, for which the abundance fitness was -0.346 ± 0.15.
In the case of I29L it was -0.19 ± 0.066; in that of N32W, -0.891 ± 0.12; in that of N32Y, -0.776 ± 0.17.
Next, N32V: -0.672 ± 0.084; N32L: -0.706 ± 0.099; N32A: -0.343 ± 0.077.
In the case of N32M it was -0.44 ± 0.14; in that of N32T, -0.414 ± 0.092.
On to N32G, for which the abundance fitness was -0.074 ± 0.046.
Next, R58I: -0.806 ± 0.49; R58N: -0.759 ± 0.17; R58K: -0.497 ± 0.22.
In the case of R58C it was 0.417 ± 0.39.
Next, R58W: 0.565 ± 0.11.
As to R58F, the abundance fitness was 0.109 ± 0.2.
With R58Q, the abundance fitness was -0.046 ± 0.11.
In the case of R58M it was 0.036 ± 0.09; in that of R58V, -0.903 ± 0.27; in that of R58T, -0.097 ± 0.1.
Next, G66M: -0.574 ± 0.4; A8S: -0.265 ± 0.073; A8Q: -0.842 ± 0.23.
Next, A8N: -0.476 ± 0.29; V65P: -0.814 ± 0.17; V65M: -0.012 ± 0.14.
With V65K, the abundance fitness is -0.851 ± 0.24.
In the case of V65W it was -1.02 ± 0.37; in that of R48I, 0.117 ± 0.27; in that of R48P, 0.346 ± 0.082.
In the case of R48Y it was 0.066 ± 0.25; in that of R48D, 0.402 ± 0.17.
On to R48M, for which the abundance fitness was found to be 0.443 ± 0.22.
On to R48E, for which the abundance fitness worked out at 0.125 ± 0.13.
Regarding R48T, the abundance fitness was -0.013 ± 0.11.
Next, R48V: 0.241 ± 0.11; R48W: -0.018 ± 0.1.
In the case of R48L it was 0.191 ± 0.084; in that of F59P, -0.783 ± 0.21; in that of F59Y, -0.28 ± 0.24.
Regarding F59I, the abundance fitness is -0.355 ± 0.39.
For the variant F59W, the abundance fitness is -0.255 ± 0.15.
In the case of F59S it was -0.809 ± 0.25; in that of F59A, -0.601 ± 0.22.
In the case of F59E it was -0.433 ± 0.27; in that of D6V, -0.56 ± 0.34.
In the case of D6E it was -0.06 ± 0.21.
Take D6Q: the abundance fitness is -0.513 ± 0.2.
On to D6A, for which the abundance fitness stood at 0.04 ± 0.13.
In the case of C18Q it was -0.874 ± 0.22; in that of C18L, -0.692 ± 0.17; in that of C18M, -0.537 ± 0.42.
In the case of S45I it was -0.039 ± 0.14; in that of S45L, -0.183 ± 0.1.
Next, S45N: 0.261 ± 0.19; S45C: -0.03 ± 0.16; Y13H: -0.145 ± 0.15.
Y13S: the abundance fitness was -0.576 ± 0.071.
In the case of Y13T it was -0.572 ± 0.089.
Next, Y13Q: -0.615 ± 0.13; Y13L: -0.453 ± 0.078; K37V: -0.387 ± 0.099.
In the case of K37L it was -0.473 ± 0.11; in that of K37N, 0.375 ± 0.11; in that of K37R, -0.391 ± 0.1.
As for K37P, the abundance fitness came out at 0.27 ± 0.081.
In the case of K37M it was 0.279 ± 0.17.
Next, S68G: -0.125 ± 0.088.
In the case of S68N it was 0.186 ± 0.2; in that of S68M, -0.023 ± 0.2; in that of S68D, -0.049 ± 0.22.
As for S68I, the abundance fitness was -0.111 ± 0.27.
Next, C54M: -0.618 ± 0.14.
In the case of C54G it was -0.847 ± 0.1.
Next, C54K: -0.134 ± 0.17; C54Y: -0.576 ± 0.16.
On to C54D, for which the abundance fitness is -0.749 ± 0.23.
In the case of C54A it was -0.552 ± 0.095; in that of C54L, -0.749 ± 0.087; in that of C54F, -0.946 ± 0.19.
In the case of C54S it was -0.688 ± 0.083.
In the case of R27M it was 0.073 ± 0.19.
Consider R27D, for which the abundance fitness came out at 0.126 ± 0.19.
R27L: the abundance fitness is -0.154 ± 0.13.
For the variant R27V, the abundance fitness amounted to 0.094 ± 0.096.
Next, R27N: 0.237 ± 0.32; A17S: -0.346 ± 0.1.
Next, A17N: -0.422 ± 0.43; A17P: -0.962 ± 0.3; A17M: -0.89 ± 0.21.
In the case of A17C it was 0.092 ± 0.041.
With A17Q, the abundance fitness was -0.902 ± 0.32.
In the case of A17V it was -0.222 ± 0.058; in that of N41S, -0.022 ± 0.096; in that of N41C, -0.738 ± 0.19.
On to N41D, for which the abundance fitness was -0.225 ± 0.24.
On to N41Q, for which the abundance fitness is -0.285 ± 0.16.
In the case of N41L it was -0.348 ± 0.12; in that of N41H, -0.638 ± 0.25; in that of K2Y, -0.7 ± 0.24.
Next, K2I: -0.367 ± 0.16.
As for K2F, the abundance fitness was -0.53 ± 0.24.
Regarding K2L, the abundance fitness is -0.491 ± 0.12.
Turning to K2N, the abundance fitness is -0.011 ± 0.14.
Next, K2G: -0.623 ± 0.12; K2M: -0.401 ± 0.2.
In the case of K2T it was -0.186 ± 0.1; in that of K2A, 0.016 ± 0.092.
Regarding K2C, the abundance fitness is -0.578 ± 0.23.
For K2W, the abundance fitness is -0.673 ± 0.21.
In the case of F25W, the abundance fitness is -0.332 ± 0.23.
Next, F25P: -0.836 ± 0.41.
Next, F25A: -0.72 ± 0.2.
In the case of F25D it was -0.696 ± 0.42; in that of F25Q, -0.797 ± 0.23.
Turning to F25L, the abundance fitness is -0.752 ± 0.19.
In the case of F25N it was -0.647 ± 0.47.
On to F25V, for which the abundance fitness is -0.785 ± 0.22.
In the case of F25Y it was -0.481 ± 0.39.
Next, I46H: -0.162 ± 0.22; I46E: -0.437 ± 0.24; I46A: -0.041 ± 0.13.
In the case of I46T it was -0.387 ± 0.22; in that of I46Q, -0.39 ± 0.44.
As to I46W, the abundance fitness was -0.709 ± 0.26.
Turning to I46Y, the abundance fitness was 0.082 ± 0.22.
In the case of I46F it was -0.613 ± 0.088.
In the case of Q56N it was 0.143 ± 0.18; in that of Q56M, 0.002 ± 0.11.
Consider Q56T, for which the abundance fitness is -0.013 ± 0.11.
In the case of Q56E it was 0.1 ± 0.12; in that of Q56K, -0.3 ± 0.064; in that of Q56D, 0.397 ± 0.14.
Next, Q56H: -0.09 ± 0.18; Q56L: -0.022 ± 0.08.
With Q56W, the abundance fitness was determined as 0.39 ± 0.084.
Next, K40N: 0.246 ± 0.32.
Next, K40H: -0.12 ± 0.13.
Next, K40R: -0.029 ± 0.048.
K40A: the abundance fitness was found to be 0.106 ± 0.056.
In the case of K40F it was 0.09 ± 0.11; in that of V15Q, -0.744 ± 0.2.
For the variant V15N, the abundance fitness is -0.954 ± 0.35.
Consider V15R, for which the abundance fitness is -0.819 ± 0.1.
On to V15G, for which the abundance fitness is -0.546 ± 0.08.
Regarding V15S, the abundance fitness is -0.954 ± 0.18.
In the case of V15C it was -0.623 ± 0.21; in that of C38E, -0.857 ± 0.27.
